The text below walks through data of patent US20160333308A1.

The target in data set [1] is methanol dehydrogenase MDH2 from Bacillus methanolicus PB1 (Bacillus methanolicus PB1). In words: cell-based or functional assay.
In data set [2] the test system is activator protein (ACT) from Bacillus methanolicus PB1.

In data set [1], “activator protein (ACT) from Bacillus methanolicus PB1” registered a specific activity of MDH2 with ACT, crude lysates of 0.009 µmol/min/mg.

“methanol dehydrogenase MDH2 from Bacillus methanolicus PB1”: the “Km for methanol of MDH2 with ACT, crude lysates” value in data set [2] was “a Km of 119 mM”.
